Measurements from patent US20250320312A1 (OXITOPE PHARMA B V, published 2025).

Key:
Assay in all cases: scFv ELISA
[1] = target: T1, Peptide 4: Biotin-AGGGGSGGGGSGGGGSAAA-Tyr-acid (N-terminal biotin; C-terminal acid)
T1 construct: Control peptide without PC
T1 peptide: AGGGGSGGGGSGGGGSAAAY
Method in brief: (§1)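 Bound scFv was read as OD450 after HRP–anti-V5 detection, TMB development and HCl stop. PPE with BSA was incubated 1 h at RT on BSA-blocked wells coated overnight at 4° C. with peptide, or on streptavidin wells loaded 1 h with biotinylated PC-peptides at 1 μg/mL.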

[2] = target: T2, Peptide 8: Biotin-AEAAAKEAAAKEAAAKEAAAKAAA-Tyr-acid (N-terminal biotin; C-terminal acid)
T2 construct: Control peptide without PC
T2 peptide: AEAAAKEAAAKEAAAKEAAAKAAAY
Method in brief: as §1

[3] = target: Peptide 1: Biotin-…-[Tyr(PC)]-acid
[4] = target: Peptide 5: Biotin-…-[Tyr(PC)]-acid
BSA = BSA (UniProt P02769)
BSA, sequence (P02769 25-607 limits assumed): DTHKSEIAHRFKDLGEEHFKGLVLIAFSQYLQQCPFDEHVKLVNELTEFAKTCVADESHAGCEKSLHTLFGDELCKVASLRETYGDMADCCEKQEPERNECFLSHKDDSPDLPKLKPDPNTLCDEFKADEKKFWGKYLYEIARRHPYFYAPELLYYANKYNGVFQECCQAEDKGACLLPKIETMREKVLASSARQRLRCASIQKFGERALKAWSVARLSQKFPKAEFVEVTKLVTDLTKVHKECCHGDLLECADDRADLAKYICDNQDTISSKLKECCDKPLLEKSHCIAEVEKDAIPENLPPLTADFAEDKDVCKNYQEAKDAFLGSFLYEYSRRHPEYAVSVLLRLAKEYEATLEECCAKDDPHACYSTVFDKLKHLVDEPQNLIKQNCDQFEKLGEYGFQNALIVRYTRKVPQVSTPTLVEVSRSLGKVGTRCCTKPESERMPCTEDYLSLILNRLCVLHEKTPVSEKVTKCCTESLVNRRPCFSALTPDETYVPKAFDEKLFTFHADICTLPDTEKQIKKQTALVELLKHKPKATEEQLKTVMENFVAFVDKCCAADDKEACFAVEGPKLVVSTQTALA

Row | OD450 [1] [OD450] | OD450 [2] [OD450] | OD450 [3] [OD450] | OD450 [4] [OD450] | OD450 (BSA) [OD450] | Binder
1 | 0.05 | 0.04 | 1.1 | 1.1 | 0.07 | PcOxP_DB03_C10 (scFv, V domains shown, scFv in periplasmic extract) VH: EVQLLESGGGLVQPGGSLRLSCAASGFTFSSYYMEWVRQAPGKGLEWVAASRNKANEYTTEYADSVKGRFTISRDNSKNTLYLQMNSLRAEDTAVYYCARDYYGSSYWYFDVWGQGTLVTVSS VL: DIVMTQSPDSLAVSLGERATINCTASESLYSSKHKVHYLAWYQQKPGQPPKLLIYGAGNRYIGVPDRFSGSGSGTDFTLTISSLQAEDVAVYYCAQFYSYPLTFGGGTKVEIK
2 | 0.05 | 0.04 | 0.67 | 1.37 | 0.09 | PcOxP_DB03_D02 (scFv, V domains shown, scFv in periplasmic extract) VH: EVQLLESGGGLVQPGGSLRLSCAASGFTFSDYYMEWVRQAPGKGLEWVAASRNKANDYTTEYADSVKGRFTISRDNSKNTLYLQMNSLRAEDTAVYYCARDYYGSSYWYFDVWGQGTLVTVSS VL: DIVMTQSPDSLAVSLGERATINCTASESLYSSKHKVHYLAWYQQKPGQPPKLLIYGATNRYIGVPDRFSGSGSGTDFTLTISSLQAEDVAVYYCAEFYSYPLTFGGGTKVEIK
3 | 0.04 | 0.04 | 0.73 | 1.11 | 0.1 | PcOxP_DB03_D03 (scFv, V domains shown, scFv in periplasmic extract) VH: EVQLLESGGGLVQPGGSLRLSCAASGFTFSDYYMEWVRQAPGKGLEWVAASRNKANDYTTEYADSVKGRFTISRDNSKNTLYLQMNSLRAEDTAVYYCARDYYFSSYWYFDVWGQGTLVTVSS VL: DIVMTQSPDSLAVSLGERATINCTASESLYSSKHKVHYLAWYQQKPGQPPKLLIYGASNRYIGVPDRFSGSGSGTDFTLTISSLQAEDVAVYYCAQFYSYPLTFGGGTKVEIK
4 | 0.05 | 0.06 | 1.19 | 1.41 | 0.06 | PcOxP_DB03_D10 (scFv, V domains shown, scFv in periplasmic extract) VH: EVQLLESGGGLVQPGGSLRLSCAASGFTTSDFYMEWVRQAPGKGLEWVAASRNKANGYTTEYADSVKGRFTISRDNSKNTLYLQMNSLRAEDTAVYYCARDYYGSSYWYFDVWGQGTLVTVSS VL: DIVMTQSPDSLAVSLGERATINCTASESLYSSKHKVHYLAWYQQKPGQPPKLLIYGASGRYIGVPDRFSGSGSGTDFTLTISSLQAEDVAVYYCAQFYSYPLTFGGGTKVEIK
5 | 0.04 | 0.04 | 0.2 | 0.3 | 0.06 | PcOxP_DB03_D12 (scFv, V domains shown, scFv in periplasmic extract) VH: EVQLLESGGGLVQPGGSLRLSCAASGFTNSDFYMEWVRQAPGKGLEWVAASRNKANDYTTELADSVKGRFTISRDNSKNTLYLQMNSLRAEDTAVYYCARDYYGSSYWYFDVWGQGTLVTVSS VL: DIVMTQSPDSLAVSLGERATINCTASESLYSSKHKVHYLAWYQQKPGQPPKLLIYGASNRYIGVPDRFSGSGSGTDFTLTISSLQAEDVAVYYCAQFYSYPLTFGGGTKVEIK
6 | 0.04 | 0.04 | 0.27 | 0.79 | 0.05 | PcOxP_DB03_E03 (scFv, V domains shown, scFv in periplasmic extract) VH: EVQLLESGGGLVQPGGSLRLSCAASGFTESDFYMEWVRQAPGKGLEWVAASRNKANDYTTEYADSVKGRFTISRDNSKNTLYLQMNSLRAEDTAVYYCARDYYGSSYWYFDVWGQGTLVTVSS VL: DIVMTQSPDSLAVSLGERATINCKSSQSLLYSKNNVNYLAWYQQKPGQPPKLLIYGESNRYIGVPDRFSGSGSGTDFTLTISSLQAEDVAVYYCAQFYEYPLTFGGGTKVEIK
7 | 0.06 | 0.04 | 0.96 | 1.2 | 0.08 | PcOxP_DB03_E04 (scFv, V domains shown, scFv in periplasmic extract) VH: EVQLLESGGGLVQPGGSLRLSCAASGFTFSSYYMEWVRQAPGKGLEWVAASRNKANDYTTEYADSVKGRFTISRDNSKNTLYLQMNSLRAEDTAVYYCARDYYGSSYWYFDVWGQGTLVTVSS VL: DIVMTQSPDSLAVSLGERATINCTASESLYSSKHKVHYLAWYQQKPGQPPKLLIYGASNRYLGVPDRFSGSGSGTDFTLTISSLQAEDVAVYYCAQFYSYPLTFGGGTKVEIK
8 | 0.05 | 0.04 | 1.4 | 1.58 | 0.07 | PcOxP_DB03_E11 (scFv, V domains shown, scFv in periplasmic extract) VH: EVQLLESGGGLVQPGGSLRLSCAASGFTFSDGYMEWVRQAPGKGLEWVAASRNKANDYTTEYADSVKGRFTISRDNSKNTLYLQMNSLRAEDTAVYYCARDYYGSSYWYFDVWGQGTLVTVSS VL: DIVMTQSPDSLAVSLGERATINCKSSESLYSSKNKVHYLAWYQQKPGQPPKLLIYGASNRYIGVPDRFSGSGSGTDFTLTISSLQAEDVAVYYCAQFYHYPLTFGGGTKVEIK
9 | 0.06 | 0.06 | 0.57 | 0.88 | 0.06 | PcOxP_DB03_E12 (scFv, V domains shown, scFv in periplasmic extract) VH: EVQLLESGGGLVQPGGSLRLSCAASGETFSDFYMEWVRQAPGKGLEWVAASRNKWNDYTTEYADSVKGRFTISRDNSKNTLYLQMNSLRAEDTAVYYCARDYYGSSYWYFDVWGQGTLVTVSS VL: DIVMTQSPDSLAVSLGERATINCTASESLYSSKHKVNYLAWYQQKPGQPPKLLIYGASNRYIGVPDRFSGSGSGTDFTLTISSLQAEDVAVYYCAQFYSYPLTFGGGTKVEIK
10 | 0.05 | 0.05 | 1.56 | 1.68 | 0.07 | PcOxP_DB03_F02 (scFv, V domains shown, scFv in periplasmic extract) VH: EVQLLESGGGLVQPGGSLRLSCAASGFTFSSYYMEWVRQAPGKGLEWVAASRNKANDYTTEYADSVKGRFTISRDNSKNTLYLQMNSLRAEDTAVYYCARDYYDSSYWYFDVWGQGTLVTVSS VL: DIVMTQSPDSLAVSLGERATINCTSSESLLSSKHKVHYLAWYQQKPGQPPKLLIYGASNRYTGVPDRFSGSGSGTDFTLTISSLQAEDVAVYYCAQFYSYPLTFGGGTKVEIK
11 | 0.05 | 0.05 | 1.13 | 1.93 | 0.08 | PcOxP_DB03_F03 (scFv, V domains shown, scFv in periplasmic extract) VH: EVQLLESGGGLVQPGGSLRLSCAASGFTFSDQYMEWVRQAPGKGLEWVAASRNKNNDYTTEYADSVKGRFTISRDNSKNTLYLQMNSLRAEDTAVYYCARDYYGASYWYFDVWGQGTLVTVSS VL: DIVMTQSPDSLAVSLGERATINCTASQSVYSSKHKKHYLAWYQQKPGQPPKLLIYGANNRYIGVPDRFSGSGSGTDFTLTISSLQAEDVAVYYCGQFYSYPLTFGGGTKVEIK
12 | 0.05 | 0.04 | 0.73 | 1.04 | 0.06 | PcOxP_DB03_F05 (scFv, V domains shown, scFv in periplasmic extract) VH: EVQLLESGGGLVQPGGSLRLSCAASGFTFSDYYMEWVRQAPGKGLEWVAASRNKGNDYTTAYADSVKGRFTISRDNSKNTLYLQMNSLRAEDTAVYYCARDYFGSSYWYFDVWGQGTLVTVSS VL: DIVMTQSPDSLAVSLGERATINCTASQSVYSSKHNKHYLAWYQQKPGQPPKLLIYGASNPYIGVPDRFSGSGSGTDFTLTISSLQAEDVAVYYCAQFYSYPLTFGGGTKVEIK
13 | 0.05 | 0.05 | 0.53 | 1.19 | 0.08 | PcOxP_DB03_F07 (scFv, V domains shown, scFv in periplasmic extract) VH: EVQLLESGGGLVQPGGSLRLSCAASGFTQSDFYMEWVRQAPGKGLEWVAASRNKGNSYTTAYADSVKGRFTISRDNSKNTLYLQMNSLRAEDTAVYYCARDYYGSSYWYFDVWGQGTLVTVSS VL: DIVMTQSPDSLAVSLGERATINCTASESLYSGKHKVHYLAWYQQKPGQPPKLLIYGASNRYIGVPDRFSGSGSGTDFTLTISSLQAEDVAVYYCAQFYSYPLTFGGGTKVEIK
14 | 0.06 | 0.06 | 1.47 | 1.43 | 0.12 | PcOxP_DB03_F11 (scFv, V domains shown, scFv in periplasmic extract) VH: EVQLLESGGGLVQPGGSLRLSCAASGFTFSDYYMEWVRQAPGKGLEWVAASRNKANSYTTAYADSVKGRFTISRDNSKNTLYLQMNSLRAEDTAVYYCARDYYGSSYWYFDVWGQGTLVTVSS VL: DIVMTQSPDSLAVSLGERATINCTSSQSLLYSSNKKHYLAWYQQKPGQPPKLLIYGASNRYIGVPDRFSGSGSGTDFTLTISSLQAEDVAVYYCAQFYEYPLTFGGGTKVEIK
15 | 0.05 | 0.05 | 0.66 | 1.19 | 0.09 | PcOxP_DB03_G01 (scFv, V domains shown, scFv in periplasmic extract) VH: EVQLLESGGGLVQPGGSLRLSCAASGFTFSDGYMEWVRQAPGKGLEWVAASRNKANFYTTEYADSVKGRFTISRDNSKNTLYLQMNSLRAEDTAVYYCARDHYGSSYWYFDVWGQGTLVTVSS VL: DIVMTQSPDSLAVSLGERATINCTASESLYSSKHKVHYLAWYQQKPGQPPKLLIYGASNRYIGVPDRFSGSGSGTDFTLTISSLQAEDVAVYYCAQFYNYPLTFGGGTKVEIK
16 | 0.05 | 0.05 | 0.74 | 1.07 | 0.07 | PcOxP_DB03_G09 (scFv, V domains shown, scFv in periplasmic extract) VH: EVQLLESGGGLVQPGGSLRLSCAASGFSFSDFYMEWVRQAPGKGLEWVAASRNKWNDYTTEYADSVKGRFTISRDNSKNTLYLQMNSLRAEDTAVYYCARDYYGSSYWYFDVWGQGTLVTVSS VL: DIVMTQSPDSLAVSLGERATINCTASESLYSSKHKVHYLAWYQQKPGQPPKLLIYGASNRYIGVPDRFSGSGSGTDFTLTISSLQAEDVAVYYCASFYSYPLTFGGGTKVEIK
17 | 0.05 | 0.05 | 0.26 | 0.72 | 0.1 | PcOxP_DB03_G11 (scFv, V domains shown, scFv in periplasmic extract) VH: EVQLLESGGGLVQPGGSLRLSCAASGFTFSSYYMEWVRQAPGKGLEWVAASRNKANDYTTEYADSVKGRFTISRDNSKNTLYLQMNSLRAEDTAVYYCARDYYGSSYWYFDVWGQGTLVTVSS VL: DIVMTQSPDSLAVSLGERATINCKSSQSVLSSKHKKNYLAWYQQKPGQPPKLLIYGASNRYIGVPDRFSGSGSGTDFTLTISSLQAEDVAVYYCAQFYSYPLTFGGGTKVEIK
